Literature values, collected in US20040101532A1, “Methods and compositions for heat shock protein mediated immunotherapy of melanoma” (priority 2004, published 2004).

What was measured:
[1] = vaccinated patients
tyrosinase = conditions: vaccinated patients, after immunization with the tyrosinase peptide antigen
[2] = system: CD8+ cytotoxic T lymphocytes; conditions: HLA-A*0201-restricted TRP-2 peptides
gp100 = conditions: detected without extensive preliminary in vitro sensitization

Sequence: YMDGTMSQV [tyrosinase:368-376 (370D)]
- tolerability in clinical trial [1]: well tolerated with little toxicity
- increase in T cell responsiveness against tyrosinase by ELISPOT (tyrosinase): Two of nine vaccinated patients showed an increase in T cell responsiveness

Sequence: TLDSQVMSL [TRP-2(360-368), HLA-A*0201-restricted TRP-2 peptide]
- induction of specific CD8+ cytotoxic T lymphocytes [2]: induced specific CD8+ cytotoxic T lymphocytes

Sequence: VMGTLVALV [TRP-2(476-484), HLA-A*0201-restricted TRP-2 peptide]
- induction of specific CD8+ cytotoxic T lymphocytes [2]: induced specific CD8+ cytotoxic T lymphocytes

Sequence: IMDQVPFSV [gp100:209-217 peptide modified at second position, methionine for threonine]
- anti-gp100 T cell reactivity induced by immunization (gp100): induce anti-gp 100 T cell reactivity
